{"source": "patent US10940198B2", "about": "“Herpes zoster vaccine composition” (MOGAM INSTITUTE FOR BIOMEDICAL RESEARCH, priority 2016, dated 2021)", "molecules": {"B1": {"name": "gE antigen: VZV glycoprotein E of SEQ ID NO: 1 (protein)", "chain": "MGTVNKPVVGVLMGFGIITGTLRITNPVRASVLRYDDFHTDEDKLDTNSVYEPYYHSDHAESSWVNRGESSRKAYDHNSPYIWPRNDYDGFLENAHEHHGVYNQGRGIDSGERLMQPTQMSAQEDLGDDTGIHVIPTLNGDDRHKIVNVDQRQYGDVFKGDLNPKPQGQRLIEVSVEENHPFTLRAPIQRIYGVRYTETWSFLPSLTCTGDAAPAIQHICLKHTTCFQDVVVDVDCAENTKEDQLAEISYRFQGKKEADQPWIVVNTSTLFDELELDPPEIEPGVLKVLRTEKQYLGVYIWNMRGSDGTSTYATFLVTWKGDEKTRNPTPAVTPQPRGAEFHMWNYHSHVFSVGDTFSLAMHLQYKIHEAPFDLLLEWLYVPIDPTCQPMRLYSTCLYHPNAPQCLSHMNSGCTFTSPHLAQRVASTVYQNCEHADNYTAYCLGISHMEPSFGLILHDGGTTLKFVDTPESLSGLYVFVVYFNGHVEAVAYTVVSTVDHFVNAIEERGFPPTAGQPPATTKPKEITPVNPGTSPLLR", "modifications": "Human herpesvirus 3"}}, "key": {"entire VZV (VZV lysate)": {"test_system": "entire VZV (VZV lysate)", "experiment": "IFN-γ ELISPOT assay, leukocyte stimulation with VZV lysate", "type": "in vivo, C57BL/6 mice", "conditions": "Experimental Example 10, FIG. 12; gE alone versus gE together with gI or IE63 antigen", "procedure": "(§1) Since humans have a history of chickenpox infection, in order to mimic chickenpox infection in mice, live attenuated vaccine (LAV, 3000 pfu) was subcutaneously injected once to female C57BL/6 mice to perform primary immunization (LAV priming). After 28 days from the LAV priming (Day 0), various VZV vaccine compositions with or without VZV protein immunogen or adjuvant were administered by intramuscular injection to perform secondary immunization. […]\nAfter performing the primary immunization and the secondary immunization, mouse IFN-γ ELISPOT (enzyme-linked immunospot) assay was carried out to confirm VZV antigen-specific cell-mediated immune response (CMI). […] The number of the resulting spots were counted with a device.\nThe gE protein, gE OLP, or VZV lysate-specific cell-mediated immune responses were measured according to the method of Experimental Example 2-2 (IFN-γ ELISPOT assay), and the experimental results are summarized in FIGS. 3, 4, and 5. […]\nThe gE protein, gE OLP, or VZV lysate-specific cell-mediated immune responses were measured according to the method of Experimental Example 2-2 (IFN-γ ELISPOT assay), and the experimental results are summarized in FIGS. 15, 16, and 17."}, "VZV antigen": {"test_system": "VZV antigen", "experiment": "VZV antigen-specific IgG titer (ELISA) after immunization", "type": "in vivo, C57BL/6 mice", "conditions": "Experimental Example 10, FIG. 12; gE alone versus gE together with gI or IE63 antigen", "procedure": "as §1\nAfter performing the primary immunization and the secondary immunization, ELISA (enzyme-linked immunosorbant assay) was carried out for measuring VZV antigen-specific IgG titer. […] The HRP reaction was stopped by adding ELISA stop solution and optical density (OD) was measured using a spectrometer at a wavelength of 450 nm.\nVarious VZV antigen-specific IgG titers depending on the use of SLA-SE were determined in the same manner as in Experimental Example 2-1 except that any one of gE, gI, IE63, gB, gC, and gL was used as an antigen in the secondary immunization and SLA-SE was used as an adjuvant, and the results are summarized in FIGS. 8 and 9. […]"}}, "data": [{"molecule": "B1", "values": [{"measurement": "VZV-specific T cell response", "setting": "entire VZV (VZV lysate)", "result": "not significantly different"}, {"measurement": "VZV-specific antibody response", "setting": "VZV antigen", "result": "not significantly different"}]}]}
